The text below walks through data of PMC7782738.

Broadly, the stoichiometry N is the number of molecules, sites or subunits per partner or assembly.

In assay [1] the target is fully functional core construct of the rat cardiac sodium channel NaV1.5 (rNaV1.5C) (rat) (UniProt P15389). As to the kind of experiment: cryo-EM structure; purified rNaV1.5C (~1 mg/ml) mixed with 50 uM LqhIII and purified FGF12b and calmodulin, re-run on Superose-6 in 25 mM imidazole pH 6.0, 150 mM NaCl, 0.006% GDN; peak concentrated to 5 mg/ml; no membrane potential.
For assay [2] the target is unchanged.

Sequence of UniProt P15389 (P15389 whole entry): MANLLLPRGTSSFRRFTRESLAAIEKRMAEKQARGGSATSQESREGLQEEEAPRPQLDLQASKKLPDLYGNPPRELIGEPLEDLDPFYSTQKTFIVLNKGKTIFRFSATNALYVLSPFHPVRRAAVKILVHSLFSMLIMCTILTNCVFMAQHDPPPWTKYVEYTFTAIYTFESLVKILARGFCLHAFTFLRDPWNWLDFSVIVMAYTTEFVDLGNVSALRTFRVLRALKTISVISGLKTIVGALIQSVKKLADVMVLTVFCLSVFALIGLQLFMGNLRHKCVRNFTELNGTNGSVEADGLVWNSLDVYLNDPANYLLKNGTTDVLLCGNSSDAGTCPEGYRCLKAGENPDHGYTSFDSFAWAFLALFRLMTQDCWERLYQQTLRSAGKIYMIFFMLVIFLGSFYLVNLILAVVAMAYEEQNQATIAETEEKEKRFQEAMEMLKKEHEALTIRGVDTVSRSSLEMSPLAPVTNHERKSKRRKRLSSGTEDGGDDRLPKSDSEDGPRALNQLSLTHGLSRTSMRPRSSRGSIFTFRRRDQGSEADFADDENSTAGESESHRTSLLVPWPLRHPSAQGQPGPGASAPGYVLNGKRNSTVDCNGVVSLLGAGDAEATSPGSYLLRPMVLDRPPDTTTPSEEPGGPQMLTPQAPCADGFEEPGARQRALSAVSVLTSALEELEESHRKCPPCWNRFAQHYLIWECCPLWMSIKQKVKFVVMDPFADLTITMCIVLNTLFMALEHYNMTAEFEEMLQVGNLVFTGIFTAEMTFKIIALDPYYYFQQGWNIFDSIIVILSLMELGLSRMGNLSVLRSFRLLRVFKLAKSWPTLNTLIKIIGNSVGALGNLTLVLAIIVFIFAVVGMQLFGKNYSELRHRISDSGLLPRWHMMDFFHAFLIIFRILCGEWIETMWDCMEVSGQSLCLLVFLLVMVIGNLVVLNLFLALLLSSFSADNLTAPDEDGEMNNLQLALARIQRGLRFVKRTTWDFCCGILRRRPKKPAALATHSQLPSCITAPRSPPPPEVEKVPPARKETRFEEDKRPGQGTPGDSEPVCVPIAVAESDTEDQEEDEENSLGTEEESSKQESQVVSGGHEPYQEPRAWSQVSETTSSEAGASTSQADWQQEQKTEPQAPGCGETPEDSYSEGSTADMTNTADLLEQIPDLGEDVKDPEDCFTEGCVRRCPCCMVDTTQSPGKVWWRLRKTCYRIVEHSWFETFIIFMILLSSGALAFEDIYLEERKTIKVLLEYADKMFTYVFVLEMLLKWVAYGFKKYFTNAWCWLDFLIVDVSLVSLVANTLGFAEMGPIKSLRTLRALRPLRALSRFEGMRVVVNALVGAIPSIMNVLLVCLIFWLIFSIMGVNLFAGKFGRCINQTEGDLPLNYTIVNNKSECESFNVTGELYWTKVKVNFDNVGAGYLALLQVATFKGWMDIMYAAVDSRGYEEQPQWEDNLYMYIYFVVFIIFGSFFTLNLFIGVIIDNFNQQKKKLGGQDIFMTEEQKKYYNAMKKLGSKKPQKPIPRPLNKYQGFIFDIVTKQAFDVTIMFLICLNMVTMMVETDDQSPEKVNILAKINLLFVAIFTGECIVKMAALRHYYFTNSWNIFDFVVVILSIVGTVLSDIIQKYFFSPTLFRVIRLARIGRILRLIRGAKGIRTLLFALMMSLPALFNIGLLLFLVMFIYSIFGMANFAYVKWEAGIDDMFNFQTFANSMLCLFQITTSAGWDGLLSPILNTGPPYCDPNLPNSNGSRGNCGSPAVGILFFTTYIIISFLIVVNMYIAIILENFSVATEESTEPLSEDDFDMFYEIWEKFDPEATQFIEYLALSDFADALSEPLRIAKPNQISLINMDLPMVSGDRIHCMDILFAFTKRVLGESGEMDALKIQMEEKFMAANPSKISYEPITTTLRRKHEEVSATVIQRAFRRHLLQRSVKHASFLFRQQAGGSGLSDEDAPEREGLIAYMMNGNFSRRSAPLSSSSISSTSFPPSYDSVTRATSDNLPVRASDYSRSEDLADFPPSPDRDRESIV

B1: α-scorpion toxin LqhIII from the deathstalker scorpion Leiurus quinquestriatus hebraeus (natural protein)
chain: VRDGYIAQPENCVYHCFPGSSGCDTLCKEKGGTSGHCGFKVGHGLACWCNALPDNVGIIVEGEKCHS
B1 returned a stoichiometry N in assay [1] of 1. For the same molecule, in assay [2], the inhibition of fast inactivation: sodium current remaining 6 ms after the depolarizing pulse, whole-cell patch clamp of HEK293S GnTI- cells expressing rNaV1.5C, 1-1000 nM LqhIII was determined as 11.4 nM and the time course of the block of fast inactivation on perfusion of 100 nM LqhIII, cells held at -120 mV, single exponential fit was 11.3 min.
